Data published in US20230038883A1, “SPECIFIC HOST FACTOR OF HEPATITIS B VIRUS INFECTION, AND USE THEREOF” (priority 2020, published 2023).

Columns and labels:
Assay type in all cases: cell-based
[1] = system: HBV; assay: HBV infection of HepG2-NTCP cells overexpressing SCARF2
Procedure: FIGS. 8A, 8B, and 8C are schematic diagrams showing the effects of transduction of SCARF2 on infection in Example 6. (FIG. 8A) HepG2-NTCP cells were transduced with SCARF2, CREBH-122, or PWPI, and then infected with HBV in the presence of 1% PEG. (FIG. 8B) HepG2-NTCP cells were transduced with SCARF2, CREBH-122, or PWPI, and then infected with HBV in the presence of 5% PEG. (FIG. 8C) Nuclear and cytoplasmic fractions of the cells at 0 hour, 6 hours, 24 hours, and 72 hours after infection were isolated, and content of HBV DNA in each of the fractions was detected by southern-blot.
In the present invention, SCARF2 was first overexpressed in HepG2-NTCP cell line to test the effects of SCARF2 on HBV infection. […] Meanwhile, from HepG2-NTCP cell line stably expressing SCARF2, HBV DNA was isolated for analysis from the cytoplasm and the nucleus at different time points of HBV infection.

[2] = system: hepatitis D virus (HDV); assay: HDV infection
Source text: This phenomenon can be explained and discussed from the following aspects. First, the present invention finds that HDV infection is more dependent on the expression of NTCP on the cell membrane than HBV infection, and HDV infection can occur more easily at a low PEG concentration. Although HDV and HBV have the same viral outer membrane, HDV can be assembled in the absence of L protein. […] Second, SCARF2 contains, at its C-terminus, a signal that can lead to its localization to the nuclear membrane, and a mutant with deletion of the C-terminal Proline-rich domain cannot enhance the infection.

[3] = system: HBV; assay: HBV infection of HepG2-NTCP cells transduced with CREBH and truncated forms (ELISA, HBcAg staining); conditions: transduced before infection
Procedure: HepG2-NTCP cells were transduced with lentivirus embedded with CREBH and truncated forms thereof. After 24 hours, the cells were re-seeded in a culture plate, and the culture medium was changed to PMM. After 24 hours, the cells were infected with HBV in the presence of 1% PEG and 5% PEG respectively. Supernatant was collected every 2 days and assayed using an ELISA kit.
HBcAg staining was also performed in the experiments, and results were consistent with the ELISA results. […] It was thus speculated that these two truncated forms might have exerted a dominant-negative effect.

[4] = system: SCARF2 gene; assay: SCARF2 expression after transduction of CREBH and truncated forms (mRNA sequencing, quantitative PCR); conditions: HepG2-NTCP cells transduced
Source text: Since the results of the infection occurred after the transduction of truncated forms of CREBH indicate that the transcriptional activation function of CREBH is necessary for enhancement of the infection, and the shortest functional truncated form CREBH-122-318 is localized on the nucleus, it is inferred that it is by activating a downstream gene that CREBH enhances HBV entry. In order to more accurately determine the downstream major gene, HepG2-NTCP cells transduced with CREBH, CREBH-122, CREBH-307, CREBH-122-318, CREBH-211-318, PWPI-B, and PMM were selected and used for transcriptome sequencing experiments. Meanwhile, CREBH siRNA-2 was selected and used to knock down CREBH in HepG2-NTCP cells. siNC was used as a negative control. Changes in transcriptomes were detected.
The same conclusion was also made from subsequent experiments using quantitative PCR, and the expression levels of SCARF2 were completely consistent with the enhancement effects of CREBH and its various truncated forms on HBV infection observed in the previous text.

[5] = system: APOA4 gene; assay: relative expression of APOA4 after transduction of truncated forms into HepG2-NTCP cells
Procedure: In order to detect whether each truncated form still had transcriptional activation ability, experiments were conducted by using the activation of APOA4 gene reported in the literature as an indicator of the transcriptional activation ability of CREBH. After the truncated forms were transduced into HepG2-NTCP cells, relative expression of APOA4 was detected. […] CREBH-C also had relatively high activation efficiency, which however was about ⅓ of the activation efficiency of the full-length CREBH.

[6] = system: NTCP mRNA; assay: NTCP mRNA level under CREBH overexpression; conditions: overexpression in HepG2-NTCP
Source text: NTCP is a key receptor in HBV infection and can directly bind to the PreS1 region on the virus. Many factors capable of affecting HBV infection may indirectly affect HBV infection by affecting the expression level or cellular localization of NTCP. In order to detect whether CREBH enhances HBV infection by affecting NTCP, changes in NTCP mRNA level under the condition of overexpressing CREBH was first detected.

[7] = HepG2-NTCP stably expressing SCARF2, southern-blot

B1: SCARF2: Scavenger receptor family F protein, SEQ ID NO:8, overexpressed in HepG2-NTCP cells (protein, listed as Homo sapiens)
chain: MEGAGPRGAGPARRRGAGGPPSPLLPSLLLLLLLWMLPDTVAPQELNPRGRNVCRAPGSQVPTCCAGWRQQGDECGIAVCEGNSTCSENEVCVRPGECRCRHGYFGANCDTKCPRQFWGPDCKELCSCHPHGQCEDVTGQCTCHARRWGARCEHACQCQHGTCHPRSGACRCEPGWWGAQCASACYCSATSRCDPQTGACLCHAGWWGRSCNNQCACNSSPCEQQSGRCQCRERTFGARCDRYCQCFRGRCHPVDGTCACEPGYRGKYCREPCPAGFYGLGCRRRCGQCKGQQPCTVAEGRCLTCEPGWNGTKCDQPCATGFYGEGCSHRCPPCRDGHACNHVTGKCTRCNAGWIGDRCETKCSNGTYGEDCAFVCADCGSGHCDFQSGRCLCSPGVHGPHCNVTCPPGLHGADCAQACSCHEDTCDPVTGACHLETNQRKGVMGAGALLVLLVCLLLSLLGCCCACRGKDPTRRPRPRRELSLGRKKAPHRLCGRFSRISMKLPRIPLRRQKLPKVVVAHHDLDNTLNCSFLEPPSGLEQPSPSWSSRASFSSFDTTDEGPVYCVPHEEAPAESRDPEVPTVPAEAPAPSPVPLTTPASAEEAIPLPASSDSERSASSVEGPGGALYARVARREARPARARGEIGGLSLSPSPERRKPPPPDPATKPKVSWIHGKHSAAAAGRAPSPPPPGSEAAPSPSKRKRTPSDKSAHTVEHGSPRTRDPTPRPPGLPEEATALAAPSPPRARARGRGPGLLEPTDAGGPPRSAPEAASMLAAELRGKTRSLGRAEVALGAQGPREKPAPPQKAKRSVPPASPARAPPATETPGPEKAATDLPAPETPRKKTPIQKPPRKKSREAAGELGRAGAPTL
What does the source list for B1?
HBV infection ([1]; 1% PEG or 5% PEG): can enhance HBV infection; HBV DNA in fractions of the cytoplasm [1, 7]: slightly increased; rcDNA and cccDNA in fractions of the nucleus [1, 7]: significantly increased; HDV infection [2]: neither of CREBH and SCARF2 can enhance

B2: CREBH-211-318: truncated form of CREBH, residues 211-318, SEQ ID NO:4, expresses only the bZIP domain (protein)
chain: QELVLTEDEKKLLAKEGITLPTQLPLTKYEERVLKKIRRKIRNKQSAQESRKKKKEYIDGLETRMSACTAQNQELQRKVLHLEKQNLSLLEQLKKLQAIVVQSTSKSA
What does the source list for B2?
HBV infection (HBcAg staining, consistent with ELISA) [3]: to some certain extent inhibited the infection; expression of SCARF2 [4]: does not lead to a change in SCARF2 expression

B3: CREBH-122-318: truncated form of CREBH, residues 122-318, SEQ ID NO:3 (protein)
chain: MCLSYHPGNSCSTTTPGPVIQVPEASVTIDLEMWSPGGRICAEKPADPVDLSPRCNLTVKDLLLSGSSGDLQQHHLGASYLLRPGAGHCQELVLTEDEKKLLAKEGITLPTQLPLTKYEERVLKKIRRKIRNKQSAQESRKKKKEYIDGLETRMSACTAQNQELQRKVLHLEKQNLSLLEQLKKLQAIVVQSTSKSA
Which results are given for B3?
HBV infection efficiency (ELISA) ([3]; 1% PEG and 5% PEG, compared with PWPI-B empty control): increase the infection efficiency; activation of APOA4 gene (relative expression) [5]: capable of activating APOA4 gene to some extent; NTCP mRNA level [6]: slightly down-regulated; expression of SCARF2 [4]: significantly up-regulates SCARF2
